Measurements taken from US20230079150A1, “METHODS FOR PREVENTION OR TREATMENT OF VIRUS-INDUCED ORGAN INJURY OR FAILURE WITH IL-22 DIMER” (priority 2020, published 2023).

Tests used:
[1] = test system: H1N1 influenza (A/PR8 strain); format: in vivo, C57BL/6 mice
[2] = LPS acute lung injury mouse model: human IL-22 ELISA in BAL; format: in vivo, mice; settings: high-dose LPS; F-652 4 μg tail vein; day 4; sham non-detectable
Protocol: (§1) After approval from the Tulane University, Institutional Animal Care and Use Committee (protocol ID 607), equal numbers of male and female, 6-8 week old C57BL/6 mice (Charles River Laboratories, Cambridge, Mass.) were given acute lung injury (ALI) via intra-tracheally administered LPS. After obtaining appropriate depth of anesthesia using isoflurane, the high-dose LPS group (HDG) received 100 μg of LPS administered intra-tracheally. Approximately 30 minutes after LPS administration, 4 μg of F-652 was administered via tail vein injection (n=11), then compared to animals receiving sham injection (n=8) with phosphate-buffered saline (PBS). In the low-dose LPS group (LDG), 33.3 μg of LPS was administered intra-tracheally. F-652 was again administered at 30 minutes (n=9) and compared to sham injected animals (n=9). […]
(§2) The BAL fluid was then centrifuged at 500×gravity for 5 minutes. […] To quantify protein in the BAL supernatant, a Bradford protein assay (Bio-Rad Laboratories) was performed. Protein was quantified by measuring absorbance at 595 nm on a BMG Labtech FLUOstar Optima plate reader. […] Human IL-22 was measured using an IL-22 Human ELISA kit (ThermoFisher Scientific). Mouse IL-22 was measured using an IL-22 Mouse/Rat Quantikine ELISA kit (R&D Systems).

STAT3 = settings: F-652 alone compared to control HUVECs
Protocol: To investigate the effects of F-652 on EGX, cultured HUVECs were exposed to either untreated media, 1 μg/mL of LPS, 1 μg/mL of LPS and 0.375 μg/mL of F-652, or 0.375 μg/mL of F-652 alone, for a total of 24 hours.
HUVECs were lysed in lysis buffer (50 mM Tris-HCl pH 7.5, 150 mM NaCl, 0.5 M EDTA, 1% Triton X-100, and Halt™ protease inhibitor cocktail). Proteins were quantified using Bio-Rad protein quantification assay (Bio-Rad Laboratories), and 20-50 μg of protein was separated by SDS-polyacrylamide gel electrophoresis (SDS-PAGE) on a 4-12% gradient acrylamide gel run at 100 V. Proteins were then transferred to 0.45 m PVDF membrane at 30 V for 2 hours. Membranes were blocked in Tris Buffered Saline (TBS: 137 mM NaCl, 20 mM Tris Base), 0.1% Tween 20, and 5% bovine serum albumin (blocking solution) for 1 hour, followed by overnight incubation with primary antibody diluted in TBS, 0.1% Tween 20, and 3% BSA, and 1 hour incubation with horseradish peroxidase-conjugated secondary antibody diluted at 1:5,000. […] Immunoreactive protein was detected using ECL (GE Healthcare) imaged on a Bio-Rad ChemiDoc™ MP Imaging System.

mouse IL-22 = test: LPS acute lung injury mouse model: endogenous mouse IL-22 ELISA in BAL; format: in vivo, mice; settings: low-dose LPS; F-652 4 μg tail vein; day 4; sham non-detectable
Protocol: as §1, §2

[3] = test system: Human umbilical vein endothelial cells (HUVEC); test: Glycocalyx quantification (WGA staining) in HUVECs with or without LPS; format: cell-based
Protocol: Human umbilical vein endothelial cells (HUVEC) were purchased from the American Type Culture Collection. Cells were initially grown in 2% gelatin-coated 10-cm plastic dishes using M200 medium supplemented with low serum growth supplement (LSGS) and penicillin/streptomycin in a cell culture incubator at 37° C. with 5% CO2 atmosphere. Cells were passaged by digestion in 0.25% trypsin in Hanks' Balanced Salt Solution (HBSS) after reaching 80% confluence. Cells were used for experiments between passages 1-3. For glycocalyx quantification, HUVECs were plated in 48-well plastic cell culture plates coated with 2% gelatin, at a confluence of approximately 80%. M200+LSGS+penicillin/streptomycin was supplemented with 1% bovine serum albumin (BSA) to support glycocalyx growth. Cells were cultured for 24 hours to allow glycocalyx development before LPS exposure.
After completion of the LPS exposure with or without F-652, HUVECs were fixed by addition of concentrated formaldehyde solution directly to the culture medium to yield a final formaldehyde concentration of 3.5%. […] Glycocalyx and nuclei (4′,6-diamidino-2-phenylindole) were imaged on an EVOS fluorescence microscope under identical conditions. […] ImageJ software was used to quantify glycocalyx fluorescence intensity overlaying the nuclei of each visible cell.

C57BL/6 mice = test: LPS acute lung injury mouse model: endothelial glycocalyx intensity in alveolar capillaries; format: in vivo
Protocol: as §1
Paraformaldehyde-fixed lung segments were flash-frozen in Optimal Cutting Temperature (O.C.T) compound (Sakura) and sectioned on a cryostat. […] Glycocalyx and nuclei (4′,6-diamidino-2-phenylindole) were imaged on an Olympus BX51 fluorescence microscope under identical conditions. ImageJ software was used to quantify glycocalyx fluorescence intensity in the alveolar capillaries from a minimum of 20 regions of interest from 3 mice per condition.

B1: F-652: recombinant IL-22 dimer consisting of two monomeric subunits each comprising a sequence shown in SEQ ID NO: 24 (protein)
chain 1: APISSHCRLDKSNFQQPYITNRTFMLAKEASLADNNTDVRLIGEKLFHGVSMSERCYLMKQVLNFTLEEVLFPQSDRFQPYMQEVVPFLARLSNRLSTCHIEGDDLHIQRNVQKLKDTVKKLGESGEIKAIGELDLLFMSLRNACIGSGGGSGGGGSGGGGSVECPPCPAPPVAGPSVFLFPPKPKDTLMISRTPEVTCVVVDVSHEDPEVQFNWYVDGVEVHNAKTKPREEQFNSTFRVVSVLTVVHQDWLNGKEYKCKVSNKGLPASIEKTISKTKGQPREPQVYTLPPSREEMTKNQVSLTCLVKGFYPSDIAVEWESNGQPENNYKTTPPMLDSDGSFFLYSKLTVDKSRWQQGNVFSCSVMHEALHNHYTQKSLSLSPGK
chain 2: B1 chain 1
modifications: homodimer
Question: What does the source list for B1?
Answer: influenza specific CD8+ T cells (Total CD8+) compared to PBS control ([1]; aged mice, 3-week treatment): significantly decreased; lung infiltrating neutrophils and inflammatory monocytes compared to 3-week F-652 treatment ([1]; aged mice, 6-week F-652 treatment): even more decrease; lung infiltrating neutrophils and inflammatory monocytes compared to PBS control ([1]; aged mice, F-652 200 μg/kg weekly for 3 weeks, Days 62-65 post-infection): decreased significantly; CD8+ T cells expressing CD69+ or CD69+/CD103+ compared to PBS control ([1]; both young and aged hosts): decreased significantly; total number of CD8+ T cells ([1]; young mice, 3-week treatment): no significant difference; lung infiltrating neutrophils or inflammatory monocytes, PBS vs F-652 ([1]; young mice, treated for 3 weeks or 6 weeks): no significant difference; human IL-22 level in BAL [2]: 27.41 pg/mL; ratio of phosphorylated STAT3 to total STAT3 (STAT3): significantly higher; endogenous mouse IL-22 level in BAL (mouse IL-22): 1.22 pg/mL; glycocalyx staining intensity ([3]; 0.375 μg/mL F-652 alone, 24 hours, control 6.09): 5.08 AU; glycocalyx staining intensity ([3]; 1 μg/mL LPS and 0.375 μg/mL F-652, 24 hours, control 6.09, LPS 5.10): 5.86 AU; endothelial glycocalyx intensity, F-652 treated vs sham (C57BL/6 mice; high dose LPS injury): no significant difference; endothelial glycocalyx intensity in alveolar capillaries (C57BL/6 mice; low dose LPS injury, sham 63.7): 80.0 Arbitrary Units
